Source: US11160886B2, “Method for labeling of sensitive and thermosensitive targeting biomolecules with technetium based compounds” (BRACCO IMAGING SPA, priority 2016, dated 2021)

What was measured:
[1] = Biodistribution in healthy rats; format: in vivo, Sprague-Dawley rats; conditions: for Biodistribution: Blood / Biodistribution: Heart / Biodistribution: Intestine / Biodistribution: Kidneys / Biodistribution: Liver / Biodistribution: Lungs / Biodistribution: Muscle / Biodistribution: Spleen / Biodistribution: Stomach / Biodistribution: Urine: healthy rats
Experimental: (§1) Before injection, ^99mTc complexes were purified using a reversed-phase C18 Sep-Pack cartridge to remove the excess of unlabeled ligands. After purification, the activity recovered was further diluted with PBS to obtain a final solution that is <0.5% in EtOH content. The RCP and the stability of the purified complexes were evaluated prior to in vivo administration and for the succeeding 18 h.
Biodistribution in healthy rats. Biodistribution in healthy rats was performed on complex 1, complex 2 and complex 9 in order to evaluate their pharmacokinetic profile and elimination pathways as well as their resistance to in vivo metabolism. Female Sprague-Dawley rats weighing 180-200 g were anesthetized with an intramuscular injection of a mixture of Zoletil (40 mg/kg) and xylazine (2 mg/kg). A jugular vein was surgically exposed and 100 μl (300-370 kBq) of the solution containing the selected [^99mTc(N)(PNP3OH)]-compound was injected. The rats (n=3) were scarified by cervical dislocation at different times after injection. The blood was withdrawn from the heart with a syringe immediately after death and quantified. Organs were excised, rinsed in saline, weighed, and the activity was counted in a Nal well counter.

[2] = system: αvβ3 integrins; format: in vivo, NOD/SCID mice; conditions: 120 min post injection
Experimental: as §1
Distribution in Tumor Bearing Mice.
Tumor uptake studies were performed on complex 9 in NOD/SCID mice to determine the effective capability of the complex to detect in vivo endogenously expressed αvβ3 integrins. For induction of tumor xenografts, M21 (αvβ3 positive) and M21L (αvβ3 negative) cells were subcutaneously injected at a concentration of 5×10^6 cells/mouse and allowed to grow until tumor of 3 mm is palpable. The solution containing the purified radiolabeled peptide (15 μCi/200 μL) was injected intravenously into the tail vein. The animals (n=5) were sacrificed by cervical dislocation at 2 h post injection. Tumors and other tissues (blood, heart, lung, liver, kidneys, stomach, intestine, muscle) were removed, weighed, and the activity was counted in a Nal well counter. The results were expressed as the percentage of injected activity per gram of tissue (% IA/g) and tumor to organ ratios were calculated.

[3] = Stability in RPMI1640 cell culture medium; format: physicochemical
Experimental: Before the cell experiments, the stability of the purified complex 9 in RPMI1640 medium was evaluated. The radiolabeled peptide was found stable. Data were compared with those of the ^99mTc-HYNIC-RGDfK labeled compound produced according to literature (Decristoforo C, Santos I, Pietzsch H J, Kuenstler J U, Duatti A, Smith C J, Rey A, Alberto R, Von Guggenberg E, Haubner R. Comparison of in vitro and in vivo properties of [99mTc]cRGD peptides labeled using different novel Tc-cores.Q J Nucl Med Mol Imaging. (2007), 51, 33-41).
Thus, to a glass test tube containing 990 μL of cell culture media was added 10 μL of a solution containing 10 μCi of complex 9. The mixture was vortexed and incubated at 37° C. for 2 h. At 30 min, 1 and 2 h, 100 μl of the reaction mixture were withdrawn and analyzed by HPLC chromatography. The radiochemical purity (RCP) of the complexes was found >90%.

[4] = Challenge reactions (transchelation) with excess Cys, GSH or EDTA, RCP by HPLC; format: physicochemical; conditions: Cys 10 mM; for % RCP after incubation with excess Cys: 37° C.
Experimental: The transchelation studies were performed for some compounds monitoring by HPLC the radiochemical purity (RCP) of the complexes in presence of an excess of exchanging ligands over the time. The experiments were performed in triplicate.
Challenge experiments were carried out on the purified [^99mTc(N)(PNP3OH)]-labeled small size compounds (complex 1, complex 2, complex 9 and complex 10) using an excess of glutathione (GSH) or Cys. An aliquot (50 μl) of an aqueous stock solution of cysteine hydrochloride (10 mM; 1 mM) was added to a propylene test tube containing PB (250 μl, 0.2 M; pH 7.4), water (100 μl) and the selected [^99mTc(N)(PNP3OH)]-compound (100 μl). The mixture was vortexed and incubated at 37° C. for 24 h. A control reaction containing an equal volume of water, instead of cysteine hydrochloride, was studied in parallel. At 30 min, 1, 3 and 24 h, aliquots of the reaction mixture were withdrawn and analyzed by HPLC chromatography. A similar procedure was applied using GSH (50 μl, 10 mM) as challenge ligand.
For [^99mTc(N)(PNP3OH)(Cys-Gly-Lys-Gly-ApoMb)]^+ (“Cys-Gly-Lys-Gly” disclosed as SEQ ID NO: 1) additional experiments were conducted using EDTA (50 μl, 10 mM) as exchanging ligand.

## [^99mTc(N)(PNP3OH)(Cys-cRGDfK)]^+ [Complex 9]
[1]; healthy animals, within the first 60 min p.i.
  Pharmacokinetic profile: blood clearance: rapid blood clearance
[1]; 30 min
  Biodistribution: Blood: 0.46 ± 0.17 % IA/g
  Biodistribution: Heart: 0.25 ± 0.06 % IA/g
  Biodistribution: Intestine: 1.29 ± 0.13 % IA/g
  Biodistribution: Kidneys: 4.50 ± 1.59 % IA/g
  Biodistribution: Liver: 0.90 ± 0.16 % IA/g
  Biodistribution: Lungs: 0.62 ± 0.15 % IA/g
  Biodistribution: Muscle: 0.17 ± 0.01 % IA/g
  Biodistribution: Spleen: 0.41 ± 0.10 % IA/g
  Biodistribution: Stomach: 0.62 ± 0.14 % IA/g
  Biodistribution: Urine: 28.98 ± 7.22 % IA/g
[1]; 60 min
  Biodistribution: Blood: 0.25 ± 0.03 % IA/g
  Biodistribution: Heart: 0.15 ± 0.00 % IA/g
  Biodistribution: Intestine: 1.95 ± 0.97 % IA/g
  Biodistribution: Kidneys: 4.20 ± 0.35 % IA/g
  Biodistribution: Liver: 0.80 ± 0.06 % IA/g
  Biodistribution: Lungs: 0.49 ± 0.01 % IA/g
  Biodistribution: Muscle: 0.13 ± 0.01 % IA/g
  Biodistribution: Spleen: 0.39 ± 0.04 % IA/g
  Biodistribution: Stomach: 0.64 ± 0.09 % IA/g
  Biodistribution: Urine: 28.16 ± 2.49 % IA/g
[1]; 120 min
  Biodistribution: Blood: 0.16 ± 0.11 % IA/g
  Biodistribution: Heart: 0.13 ± 0.05 % IA/g
  Biodistribution: Intestine: 3.76 ± 0.17 % IA/g
  Biodistribution: Kidneys: 3.13 ± 1.69 % IA/g
  Biodistribution: Liver: 0.75 ± 0.19 % IA/g
  Biodistribution: Lungs: 0.37 ± 0.15 % IA/g
  Biodistribution: Muscle: 0.12 ± 0.05 % IA/g
  Biodistribution: Spleen: 0.34 ± 0.05 % IA/g
  Biodistribution: Stomach: 0.62 ± 0.09 % IA/g
  Biodistribution: Urine: 34.58 ± 10.09 % IA/g
[1]; 240 min
  Biodistribution: Blood: 0.12 ± 0.01 % IA/g
  Biodistribution: Heart: 0.22 ± 0.13 % IA/g
  Biodistribution: Intestine: 3.94 ± 0.91 % IA/g
  Biodistribution: Kidneys: 7.24 ± 0.55 % IA/g
  Biodistribution: Liver: 0.88 ± 0.04 % IA/g
  Biodistribution: Lungs: 0.42 ± 0.06 % IA/g
  Biodistribution: Muscle: 0.11 ± 0.00 % IA/g
  Biodistribution: Spleen: 0.47 ± 0.04 % IA/g
  Biodistribution: Stomach: 0.61 ± 0.11 % IA/g
  Biodistribution: Urine: 24.91 ± 1.00 % IA/g
[2]; M21 (αvβ3 positive) tumor, mice
  Tumor uptake: M21: 4.38±0.69 % IA/g
[2]; M21L (αvβ3 negative) tumor, mice
  Tumor uptake: M21L: 1.05 ± 0.62 % IA/g
[2]; tumor bearing mice
  Biodistribution: Blood: 0.03 ± 0.01 % IA/g
  Biodistribution: Heart: 0.44 ± 0.09 % IA/g
  Biodistribution: Intestine: 5.05 ± 1.24 % IA/g
  Biodistribution: Kidney: 3.19 ± 0.18 % IA/g
  Biodistribution: Liver: 3.87 ± 0.81 % IA/g
  Biodistribution: Lungs: 1.22 ± 0.25 % IA/g
  Biodistribution: Muscle: 0.20 ± 0.07 % IA/g
  Biodistribution: Spleen: 1.51 ± 0.22 % IA/g
  Biodistribution: Stomach: 0.96 ± 0.20 % IA/g
  M21/blood ratio: 146
  M21/liver ratio: 1.13
  M21/lung ratio: 3.59
  M21/muscle ratio: 21.9
[3]
  Stability in RPMI1640 medium: found stable
[3]; 37° C., 30 min, 1 and 2 h
  Radiochemical purity (RCP) in cell culture media: > 90%
[4]; 3 h
  % RCP after incubation with excess Cys: 75.93%
[4]; 24 h
  % RCP after incubation with excess Cys: 27.31%
[4]; versus complex 1 and complex 11
  Stability toward Cys transchelation relative to neutral complexes: higher stability toward Cys transchelation
